The source of these data is patent publication US20210054076A1 (Chugai, published 2021).

Assay [1] has as its target T1, human CLDN6 (human, UniProt P56747 1-220).
T1 sequence: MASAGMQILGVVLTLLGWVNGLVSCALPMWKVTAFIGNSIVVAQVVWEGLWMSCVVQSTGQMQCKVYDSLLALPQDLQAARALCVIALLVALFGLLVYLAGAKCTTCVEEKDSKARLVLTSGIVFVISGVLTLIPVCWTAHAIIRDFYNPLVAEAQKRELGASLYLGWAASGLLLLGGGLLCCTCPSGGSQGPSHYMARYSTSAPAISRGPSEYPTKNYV
Nature of the assay: cell-based or functional assay.

Assay [2] deals with T1, human CLDN6. Nature of the assay: FACS on Ba/F3 transfectant, antibody 20 micro g/ml, FITC anti-human IgG.
In another assay the target is T2, mouse CLDN3 (mouse, UniProt Q9Z0G9 1-219).
T2 construct: whole, on cells; also called mCLDN3; BaF3_mCLDN3
T2 sequence (looked up): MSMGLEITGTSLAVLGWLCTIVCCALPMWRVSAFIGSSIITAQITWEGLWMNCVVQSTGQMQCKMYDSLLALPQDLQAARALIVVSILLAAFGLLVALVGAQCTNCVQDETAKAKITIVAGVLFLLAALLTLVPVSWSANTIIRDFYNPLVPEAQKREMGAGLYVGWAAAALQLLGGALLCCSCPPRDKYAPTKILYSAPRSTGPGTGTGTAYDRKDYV
Described as above.

The target of another assay is T3, human CLDN9 (human, UniProt O95484 1-217).
T3 construct: whole, on cells; also called hCLDN9; BaF3_hCLDN9
T3 sequence (looked up): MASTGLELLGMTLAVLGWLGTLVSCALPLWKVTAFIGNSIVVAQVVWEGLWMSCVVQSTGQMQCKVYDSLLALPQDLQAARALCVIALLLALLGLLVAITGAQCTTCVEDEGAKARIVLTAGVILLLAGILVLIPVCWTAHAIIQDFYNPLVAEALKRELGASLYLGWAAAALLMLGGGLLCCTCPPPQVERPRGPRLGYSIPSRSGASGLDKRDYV
The assay is described as above.

B1: CH04/CD3 (bispecific antibody, human IgG1, kappa, N297A)
heavy 1: EVQLQQSGPELVKPGASMKISCKASGYSFTGYTMNWVKQSHGKNLEWIGLINPYNGGTIYNQKFKGKATLTVDKSSSTAYMELLSLTSEDSAVYYCARDYGFVLDYWGQGTTLTVSSASTKGPSVFPLAPSSKSTSGGTAALGCLVKDYFPEPVTVSWNSGALTSGVHTFPAVLQSSGLYSLSSVVTVPSSSLGTQTYICNVNHKPSNTKVDKKVEPKSCDKTHTCPPCPAPELRGGPKVFLFPPKPKDTLMISRTPEVTCVVVDVSHEDPEVKFNWYVDGVEVHNAKTKPREEQYASTYRVVSVLTVLHQDWLNGKEYKCKVSNKALPAPIEKTISKAKGQPREPQVYTLPPSREEMTKNQVSLTCLVKGFYPSDIAVEWESNGQPENNYKTTPPYLDSDGSFFLYSKLTVDKSRWQQGNVFSCSVMHEALHNHYTQESLSLSP
light 1: DIVLTQSPSIMSVSPGEKVTITCSASSSVSYMHWFQQKPGTSPKLCIYSTSNLASGVPARFSGRGSGTSYSLTISRVAAEDAATYYCQQRSNYPPWTFGGGTKLEIKRTVAAPSVFIFPPSDEQLKSGTASVVCLLNNFYPREAKVQWKVDNALQSGNSQESVTEQDSKDSTYSLSSTLTLSKADYEKHKVYACEVTHQGLSSPVTKSFNRGEC
heavy 2: QVQLVESGGGVVQPGGSLRLSCAASGFTFSNAWMHWVRQAPGKGLEWVAQIKDKSQNYATYVAESVKGRFTISRADSKNSIYLQMNSLKTEDTAVYYCRYVHYAAGYGVDIWGQGTTVTVSSASTKGPSVFPLAPSSKSTSGGTAALGCLVKDYFPEPVTVSWNSGALTSGVHTFPAVLQSSGLYSLSSVVTVPSSSLGTQTYICNVNHKPSNTKVDKKVEPKSCDKTHTCPPCPAPELRGGPKVFLFPPKPKDTLMISRTPEVTCVVVDVSHEDPEVKFNWYVDGVEVHNAKTKPREEQYASTYRVVSVLTVLHQDWLNGKEYKCKVSNKALPAPIEKTISKAKGQPREPQVYTLPPSRKEMTKNQVSLTCLVKGFYPSDIAVEWESNGQPENNYKTTPPYLDSDGSFFLYSKLTVDKSRWQQGNVFSCSVMHEALHNHYTQKSLSLSP
light 2: DIVMTQSPLSLPVTPGEPASISCRSSQPLVHSNRNTYLHWYQQKPGQAPRLLIYKVSNRFSGVPDRFSGSGSGTDFTLKISRVEAEDVGVYYCGQGTQVPYTFGQGTKLEIKRTVAAPSVFIFPPSDEQLKSGTASVVCLLNNFYPREAKVQWKVDNALQSGNSQESVTEQDSKDSTYSLSSTLTLSKADYEKHKVYACEVTHQGLSSPVTKSFNRGEC
notes: Made by Fab arm exchange of the bivalent anti-CLDN6 antibody CH04 with the bivalent anti-CD3 antibody CD3-1; human IgG1 constant region; One anti-CLDN6 arm and one anti-CD3 arm; also called CLDN6-TRAB; CLDN6-targeted T-cell redirecting bispecific antibody
Turning to B1, the “EC50 (read off the curve), Jurkat/NFAT-RE luciferase reporter, target cells PA-1” value with human CLDN6 [1] was around 0.04 nM. For the same molecule, the “Geo-mean value of FACS” value with human CLDN6 [2] was determined as 3480; in the assay with mouse CLDN3, 27; in the assay with human CLDN9, 186.
